Laboratory results reported in patent publication JP2024513915A (dated 2024).

Molecular target: CD33 (UniProt P20138 18-364, limits assumed)
Test: cell-based or functional assay

Chain of CD33 (P20138 18-364 limits assumed): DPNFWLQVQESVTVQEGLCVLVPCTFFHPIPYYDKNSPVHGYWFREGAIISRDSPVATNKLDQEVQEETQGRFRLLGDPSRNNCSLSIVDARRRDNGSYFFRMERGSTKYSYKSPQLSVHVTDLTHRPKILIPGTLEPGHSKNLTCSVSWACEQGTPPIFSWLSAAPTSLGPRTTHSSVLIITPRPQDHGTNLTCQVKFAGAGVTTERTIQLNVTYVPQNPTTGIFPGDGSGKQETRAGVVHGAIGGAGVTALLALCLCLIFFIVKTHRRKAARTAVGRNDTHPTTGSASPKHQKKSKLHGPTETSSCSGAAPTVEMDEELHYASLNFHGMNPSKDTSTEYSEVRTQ

- CD4+及びCD8+T細胞増殖: > 2 fold
B1: AMV564 (bispecific antibody)
chain: DIQMTQSPSSLSASVGDRVTITCRSSTGAVTTSNYANWVQQKPGKAPKALIGGTNKRAPGVPSRFSGSLIGDKATLTISSLQPEDFATYYCALWYSNLWVFGQGTKVEIKGGSGGSQVQLVQSGAEVKKPGASVKVSCKASGYTFTSYDINWVRQAPGQGLEWMGWMNPNSGNTGFAQKFQGRVTMTRDTSTSTVYMELSSLRSEDTAVYYCARDRANTDYSLGMDVWGQGTLVTVSSGGSGQSVLTQPPSASGTPGQRVTISCSGSRSNIGSNTVNWYQQLPGTAPKLLIYGNNQRPSGVPDRFSGSKSGTSASLAISGLQSEDEADYYCATWDDSLIGWVFGGGTKLTVLGGSGGSEVQLVESGGGLVQPGGSLRLSCAASGFTFSTYAMNWVRQAPGKGLEWVGRIRSKYNNYATYYADSVKDRFTISRDDSKNSLYLQMNSLKTEDTAVYYCARHGNFGNSYVSYFAYWGQGTLVTVSS
